Results taken from article PMC6393287, “The RRM of the kRNA-editing protein TbRGG2 uses multiple surfaces to bind and remodel RNA”.

Tests used:
[1] = molecular target: TbRGG2 RRM-Cterm (residues 203–320) (T. brucei); assay: SEC; RRM-Cterm at 16 mg/ml mixed with equimolar U20 RNA, Superdex 75; 20 mM Tris-HCl pH 7.5, 150 mM NaCl, 5% glycerol, 1 mM DTT
[2] = molecular target: TbRGG2 RRM-Cterm (residues 203–320) (T. brucei); assay: SEC; protein alone at 10 mg/ml on Superdex 75; 20 mM Tris-HCl pH 7.5, 150 mM NaCl, 5% glycerol, 1 mM DTT; elution volume compared with protein standards
TbRGG2 RRM-Cterm W215A = TbRGG2 RRM-Cterm W215A (Trypanosoma brucei, UniProt Q389P7 193-310, W205A); assay: FP; FP: 20 mM Tris-HCl pH 7.5, 5% glycerol, 50 mM NaCl (a further '20 mM' printed without component), 1 nM labelled RNA, 25 C; settings: protein: recombinant; tags: His6 cleaved (thrombin); chain copies: 2; label: 5'-fluorescein (FP)
TbRGG2 RRM W215A = TbRGG2 RRM W215A (Trypanosoma brucei, UniProt Q389P7 193-259, W205A); assay: as above; settings: protein: recombinant; tags: His6 cleaved (thrombin); label: 5'-fluorescein (FP)

| Molecule | stoichiometry N [1] | stoichiometry N [2] | binding result (TbRGG2 RRM-Cterm W215A) | binding result (TbRGG2 RRM W215A) |
| --- | --- | --- | --- | --- |
| TbRGG2 RRM-Cterm (residues 203–320) (domain or fragment) | 2 | 2 | – | – |
| UUUUUUUUUUUUUUUUUUUU (ssRNA) [U20] | – | – | no binding | no binding |
